Test results reported in US20230190922A1.

Molecular target: human 4-1BB receptor (h4-1-BB) expressed on a genetically engineered Jurkat T cell line (4-1BB Bioassay, Promega) (human) (UniProt Q07011)
Experiment: cell-based or functional assay
Details: scale: relative luciferase expression

Sequence of human 4-1BB receptor (h4-1-BB) expressed on a genetically engineered Jurkat T cell line (4-1BB Bioassay, Promega) (human) (Q07011 24-255, change not shown): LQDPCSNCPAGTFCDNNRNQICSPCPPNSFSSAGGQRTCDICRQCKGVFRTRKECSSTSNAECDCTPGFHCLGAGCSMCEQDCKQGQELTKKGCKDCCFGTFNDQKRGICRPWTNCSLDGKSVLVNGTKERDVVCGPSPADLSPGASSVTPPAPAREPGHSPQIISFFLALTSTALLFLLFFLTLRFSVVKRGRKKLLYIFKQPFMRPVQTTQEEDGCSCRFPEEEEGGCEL

His-tagged h4-1BBL cross-linked with an Fc (from UniProt P41273 71-254) (ligand)
luciferase expression by Jurkat-h4-1BB reporter cells (4-1BB Bioassay, Promega), reference value: 1
